Where a chain is given by its changes, count along the chain named.
Tests used:
[1] = target: T1, full-length human FOLR1 on stably transfected CHO cells (human, UniProt P15328 25-234); test: FACS on CHO cells stably expressing full-length human FOLR1; PE goat anti-mouse IgG; MFI
T1 construct: also called CHO cells stably expressing human FOLR1
Method: CHO cells stably transfected with full-length human FOLR1 were transferred to a 96-well plate at 200,000 cells/well, washed once with FACS buffer (1×PBS, pH6.8+2% FBS) and incubated with purified mouse anti-FOLR1 mAbs from hybridoma supernatants at various concentrations for 15 minutes on ice. Cells were then centrifuged at 1,000 rpm for 5 minutes and washed with FACS buffer three times. The cells were incubated with PE-conjugated goat anti-mouse IgG polyclonal antibodies and incubated on ice for another 15 minutes. Cells were then washed with FACS buffer three times and then resuspended in FACS buffer containing 0.1 μg/ml PI (propidium iodide) for live/dead cell gating. Cells were then run through the FACS Caliber instrument and the data were analyzed by the Flowjo software. MFI, mean fluorescence intensity.

[2] = target: T2, FOLR1 on SK-OV-3 cells (ATCC HTB-77) (Homo sapiens (Human), UniProt P15328 25-234); test: FACS on SK-OV-3 cells; MFI
T2 construct: Endogenous FOLR1 of the cell line; also called cells that are known to express FOLR1

[3] = target: T2, FOLR1 on SK-OV-3 cells (ATCC HTB-77); test: FACS on SK-OV-3 cells; Alexa Fluor 488 F(ab')2 goat anti-human IgG Fc; MFI
Method: To assess the binding of the chimeric anti-FOLR1 mAbs to cells that are known to express FOLR1, SK-OV-3 (ATCC® HTB-77™) cells were plated at 80,000 cells per well on a 96-well non-binding U-bottom plate (Greiner Bio-One, Cat#: 650901). In some experiments, 90,000 cells per well were used. The cells were incubated in 50 μL FACS buffer (HBSS with 0.1% BSA and 0.05% sodium azide) containing mAbs at different concentrations on ice for 15 minutes. After wash, cells were incubated in 50 μL FACS buffer containing 3.5 μg/mL F(ab′)2-Goat anti-Human IgG Fc conjugated to Alexa Fluor® 488 (Invitrogen, Cat#: H10120) on ice for 15 minutes in dark and washed again. Cells were analyzed using an Attune NxT flow cytometer. MFI, mean fluorescence intensity.

[4] = target: T3, Recombinant extracellular domain of human FOLR1 (Novoprotein, Cat#: C784) (human, UniProt P15328 25-233, limits assumed); test: ELISA on plate-coated recombinant human FOLR1 extracellular domain; anti-human IgG-HRP; O.D. 450 nm
T3 construct: Bought reagent; also called recombinant FOLR1; immobilized FOLR1 extracellular domain
Method: The Purified chimeric mAbs were tested in an ELISA assay for their ability to bind to immobilized human FOLR1. Recombinant extracellular domain of human FOLR1 (Novoprotein, Cat#: C784) in carbonate coating buffer was coated on a 96-well plate at room temperature for 1 hour. The plate is blocked by 5% BSA in TBST for 1 hour at room temperature. In each well of an individual plate, mAbs at various concentrations were incubated for 1 hour at room temperature. The plate was washed and the binding to FOLR1 was detected by anti-human IgG conjugated to horseradish peroxidase (hIgG-HRP) (ThermoFisher Scientific, Cat#: H10007) with incubation for 1 hour at room temperature. Then after washing, the ELISA was developed using One-step Detection Solution (ThermoFisher Scientific, Cat#: 34028) and measured as the absorbance at 450 nm.

[5] = target: T3, Recombinant extracellular domain of …; test: SPR (Biacore 8k), mAb captured on protein A chip, recombinant FOLR1 as analyte, 1:1 model
Method: The interaction of the chimeric anti-FOLR1 mAbs and FOLR1 was measured by Surface Plasmon Resonance (SPR) (Biacore 8k, GE Healthcare). Briefly, an anti-FOLR1 mAb was immobilized to a protein A sensor chip (GE Healthcare, Cat#: 29-1275-56) in HBS-P buffer (0.01 M HEPES pH 7.4, 0.15 M NaCl, 0.05% v/v Surfactant P20) with an injection flow rate at […]. The recombinant FOLR1 (Novoprotein, Cat#: C784) at variant concentrations was loaded with the flow rate of 30 μL/min in HBS-P buffer. Following antigen loading, the surface was regenerated with 10 mM glycine-HCl (pH 1.5). Sensor grams were fit with a 1:1 binding model using Biacore 8k evaluation software (GE Healthcare).

[6] = target: T3, Recombinant extracellular domain of …; test: ELISA on immobilized FOLR1 extracellular domain; O.D. 450 nm
[7] = target: T3, Recombinant extracellular domain of …; test: as above; remark: listed apart in the source

T2 sequence (P15328 25-234 limits assumed): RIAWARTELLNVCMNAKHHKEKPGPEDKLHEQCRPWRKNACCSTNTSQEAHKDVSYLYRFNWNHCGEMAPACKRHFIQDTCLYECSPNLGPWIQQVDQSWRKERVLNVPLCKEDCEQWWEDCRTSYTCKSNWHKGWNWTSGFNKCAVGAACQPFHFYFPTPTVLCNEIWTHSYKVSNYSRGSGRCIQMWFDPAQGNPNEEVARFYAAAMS
T1 sequence (P15328 25-234 limits assumed): as above
T3 sequence (P15328 25-233 limits assumed): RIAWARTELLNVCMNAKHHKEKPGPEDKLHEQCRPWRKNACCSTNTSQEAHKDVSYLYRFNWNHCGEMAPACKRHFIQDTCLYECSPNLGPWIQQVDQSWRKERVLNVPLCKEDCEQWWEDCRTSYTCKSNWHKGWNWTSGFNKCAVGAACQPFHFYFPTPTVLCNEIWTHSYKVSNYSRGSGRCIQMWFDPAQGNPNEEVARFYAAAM

B1: mouse anti-FOLR1 mAb F17 (purified from hybridoma supernatant) (antibody, V domains shown)
VH: DVQLVESGGGLVQPGGSRKLSCAASGFTFSDFGMHWIRQAPERGLEWVAYMSYTPGTFHYADTVKDRFFISRDNAKNTLFLQMTSLRSDDTAMYYCARVHVGTVDYWGQGTSVTVSS
VL: DVVLTQSPATLSVTPGDSVSLSCRASQNINNNLHWFQQKSHESPRLLIKYASQSISGIPSRFSGSGSGTDFTLSINNVETEDFGIYFCQQSNSWPALTFGTGTKVELK
notes: Mouse antibody from hybridoma, purified on Protein A, detected with anti-mouse IgG; also called mAb clone F17
EC50 (read off the curve) [1]: ~0.3 µg/mL

B2: F20-H3L1 (antibody, V domains shown)
VH: QVQLVQSGAEVKKPGSSVKVSCKASGYTFASYYLYWVRQAPGQGLEWIGEINPRSGGTNFNEKFKSKATVTVDKSTNTAYMELSSLRSEDTAVYYCSRSGRLRGFYTMDYWGQGTLVTVSS
VL: DIVMTQSPDSLAVSLGERATINCKAGENVGSYVSWYQQKPGQPPKLLIYGASNRYTGVPDRFSGSGSATDFTLTISSLQAEDVAVYYCGQTYRFLTFGQGTKVEIK
notes: also called humanized F20 mAb H3L1
EC50 (read off the curve) [2]: 1 to 2 nM

B3: F20-H1L1 (antibody, V domains shown)
VH: B2 VH with K67R, N77S
VL: B2 VL
notes: also called humanized F20 mAb H1L1
EC50 (read off the curve) [2]: 1 to 2 nM

B4: F20-H3L2 (antibody, V domains shown)
VH: B2 VH
VL: B2 VL with P43S
notes: also called humanized F20 mAb H3L2
EC50 (read off the curve) [2]: 1 to 2 nM

B5: chimeric anti-FOLR1 mAb F4 (antibody, V domains shown)
VH: EVQLVESGGGLVKPGGSLKLSCAASGFTFSDYGMHWVRQAPEKGLEWVAFISSGSNTIYYADIVKGRFAISRDNAKNTLFLQMASLRSEDTALYYCARLAEWDVAYWGQGTLVTVSA
VL: DIVLTQSPATLSVTPGDRISLSCRASQNINNNLHWYQQKSHESPRLLIKFASQSISGIPSRFSGSGSGTDFTLNINGVETEDFGMYFCQQIYSWPQLTFGAGTRLELK
notes: also called Chimeric mAb F4
EC50 (read off the curve) [3]: ~0.5 nM
EC50 (read off the curve) [4]: ~0.2 nM
Kd [5]: 0.547 nM

B6: chimeric anti-FOLR1 mAb F7 (antibody, V domains shown)
VH: EFQLQQSGPELVKPGASVKISCKASGYSFTDYNMNWVKQSNGKSLEWIGVIDPNYGTTNYNQKFVGKATLTVDQSSITAYMQLNSLTAEDSAVYFCAIKGYGNPAAYWGQGTLVTVSA
VL: DIQMTQSPSSLSASLGGKVTITCKASQDINKYLAWYQHEPGKGPRLLIRYTSILESGIPSRFSGSGSGRDYSFSISNLEPEDIATYYCLQYYNLWTFGGGTKLEIK
notes: also called Chimeric mAb F7
EC50 (read off the curve) [3]: ~0.2 nM
EC50 (read off the curve) [4]: ~0.1 nM
Kd [5]: 2.33 nM

B7: mouse anti-FOLR1 mAb F4 (purified from hybridoma supernatant) (antibody, V domains shown)
VH: B5 VH
VL: B5 VL
notes: Mouse antibody from hybridoma, purified on Protein A, detected with anti-mouse IgG; also called mAb clone F4
EC50 (read off the curve) [1]: ~1 µg/mL

B8: F5-H2L1 (antibody, V domains shown)
VH: EVQLVESGGGLVQPGGSLRLSCAVSGFTFSNYGMSWVRQAPGKGLEWVATISSGGSYTYYPDSVKGRFTISRDNSKNTLYLQMNSLRAEDTAVYYCSTQGSSGYVGYWGQGTLVTVSS
VL: DIQMTQSPSSVSASVGDRVTITCKASQDITNFIGWYQHKPGKAPKLLISYTSILESGVPSRFSGSGSGRDYTLTISSLQPEDFATYYCLQYYNLWTFGGGTKVEIK
notes: also called humanized F5 mAb H2L1
EC50 (read off the curve) [6]: ~0.3 nM

B9: F5-H1L1 (antibody, V domains shown)
VH: B8 VH with V5L
VL: B8 VL
notes: also called humanized F5 mAb H1L1
EC50 (read off the curve) [6]: ~0.4 nM

B10: F5-H3L1 (antibody, V domains shown)
VH: B8 VH with N84S
VL: B8 VL
notes: also called humanized F5 mAb H3L1
binding result [7]: binds

B11: F5-H3L2 (antibody, V domains shown)
VH: B8 VH with N84S
VL: B8 VL with R69T
notes: also called humanized F5 mAb H3L2
binding result [7]: binds

B12: mouse anti-FOLR1 mAb F7 (purified from hybridoma supernatant) (antibody, V domains shown)
VH: B6 VH
VL: B6 VL
notes: Mouse antibody from hybridoma, purified on Protein A, detected with anti-mouse IgG; also called mAb clone F7
EC50 (read off the curve) [1]: ~0.1 µg/mL

B13: mouse anti-FOLR1 mAb F8 (purified from hybridoma supernatant) (antibody, V domains shown)
VH: EVMLVESGGGLVKPGGSLKLSCVASGFTLSTYAMSWVRQTPEKRLEWVATISGGGGDTYHLDTVKGRFTISRDNAKNTLYLQMSSLRSEDTALYYCARQSHYGSSYYFDNWGQGTTLTVSS
VL: DIQMTQSPASLSASVGEIVTIICRVSENIDSYLAWYQQKQGKSPQLLVYAATNLADGVPSRFSGSGSGSQYSLKINSLQSEDVARYYCQHYYTTPPTFGGGTKLDIK
notes: Mouse antibody from hybridoma, purified on Protein A, detected with anti-mouse IgG; also called mAb clone F8
EC50 (read off the curve) [1]: ~0.5 µg/mL

B14: chimeric anti-FOLR1 mAb F8 (antibody, V domains shown)
VH: B13 VH
VL: B13 VL
notes: also called Chimeric mAb F8
Kd [5]: 0.721 nM

B15: chimeric anti-FOLR1 mAb F19 (antibody, V domains shown)
VH: EVKLDETGGGLVQPGRPMKLSCVASGFTFSDYWMNWVRQSPDKGLEWVAQIGNKFHNYETYYSDSVKGRFTISRDDSKSSVYLQMNSLRVEDTGIYYCTKLGRGYYVMDYWGQGTSVTVSS
VL: DIQMTQTTSSLSASLGDRVTLNCRASQDITNHLNWFQQKPDGTFQLLIYYTSRLHSGVPSRFSGSGSGTDYSLTISNLEQEDFATYFCQQDSQHPWTFGGGTKLEIK
notes: also called Chimeric mAb F19
Kd [5]: 11.8 nM

B16: chimeric anti-FOLR1 mAb F20 (antibody, V domains shown)
VH: QVQLQQSGAELVKPGASVQLSCKASGYTFASYYLYWVKQRPGQGLEWIGEINPRSGGTNFNEKFKSKATVTVDKSSSTAYMQLSSLTSEDSAVYYCSRSGRLRGFYTMDYWGQGTSVTVSS
VL: NIVMTQSPKSMSVSVGERVTLSCKAGENVGSYVSWYQQKPEQSPELLIYGASNRYTGVPDRFTGSGSATDFTLTISSVQAEDLADYYCGQTYRFLTFGAGTKLELK
notes: also called Chimeric mAb F20
Kd [5]: 1 nM

— patent US20210002363A1 (PHANES THERAPEUTICS, published 2021)
